Source: the DeepSol protein solubility set

Assay: soluble on expression in E. coli; label from the status in PepcDB or PDB records

Row | Sequence | soluble on expression in E. coli
1 | MGSDKIHHHHHHMISERMERQLDFIVAIDALKDITRQSITTGSRRQENDAEHSWHLAVMAMILSEYAEDQTIDIAKVISMVLIHDLVEIYAGDTYCYDEKGYEDKAEREQEAADRLFNMLPEDQAQRMMSLWQEFEEMETKEAAFAATLDRFQPLLLNYNTEGHTWQRPGITSEKVLKRTEIAKEKVPQLYVYIERLIQRSIERGMLKP | not soluble
2 | MGSSHHHHHHSSGRENLYFQGHMTLTSIGPANRMARSAETHPLTWRLREDAQPVWLEEYQSKDGYAAARKALTQMAQDDIVQTVKDSGLKGRGGAGFPTGVKWGLMPKDESLNIRYLLCNADEMEPNTWKDRMLMEQLPHLLVEGMLISARALKAYRGYIFLRGEYVDAARNLNRAIDEAKAAGLLGKNILGSGFDFELFVHTGAGRYICGEETALINSLEGRRANPRSKPPFPAAVGVWGKPTCVNNVETLCNVPAIVGNGVDWYKTLARPGSEDMGTKLMGFSGKVKNPGLWELPFGVSARELFEDYAGGMRDGFQLKAWQPGGAGTGFLLPEHLDAQMFAGGIAKVGTRMGTGLAMAVDDSINMVSLLRNMEEFFARESCGWCTPCRDGLPWSVKLLRALERGEGQPGDLETLEQLVNFLGPGKTFCAHAPGAVEPLGSALKYFRAEFEAGISRQPSAAPRPATVGA | soluble
3 | MSLRIPDKNNLMIYELLLRDFTATGDLNGAMEKIGYLKSLGFNAVELMPVQEFDGNDSWGYNPCFHFALDKAYGTDHMYKAFIDKCHEVGMAVLFDVVYNHASGSHPFARLYWDTKNNRTAADNPWFNVKEPHPYGVFHDFNHDSPLVRAFVKRNLKFLLEEYRIDGFRFDMTKGFTQNSSTEATAGSYDASRIAILKDYNETVREVNPEAVVILEHFCDEKEESELAEEGMQLWRNLNNAYCQSAMGYPSNSDFTPLVTFGTTMPYGGWVGFMESHDEERTAFKQIAYGEGPLKSDINVRMKQLAANASFFFTAPGPKMVWQFGEMGYDVSIEEGGRTGRKPLHWEYLDNEARKGLCNTYAKLLKLRREHSELFNPGSTFSWLVKTANWTGGRFLTLAATNGKRLVVVGNFTAKPIEAITSFPVTGVWTNYLDGTKLHVTSIPTGLMIPAHECRVYINEGHHHHHH | not soluble
4 | MAHHHHHHMSLADEVPREWASSIRPFLQRADEFQERVPVVAYFLRTHAVYLAMKMWRKEDGPGKAFIVKLLDTLESEKKRLEQELADVDGRVLLTQYALRIFSRADDEERSDGVVANMNLVRLFFTASLLFEATAQFTDDGTLDPIATEKRDYARYIAVEMKKAMDKGVPYVSPNRTGGMVESNKEHEGESTGGGGFSTNFVQSQQPGYGQWSAQYVTPQPPPPSHEPPETPMWSGPESTNTSSTQQQQQSTPLFQTTAQPNNSNDNSNIAAAVSGVAAPKGPTMDAIIEAQNYAKQAVSALQFYDHEVACKMLRSALDLLAQR | soluble
5 | MAADRNTGHTEEDKLDVLKSTQTVIHKALEKLGYPEEVYELLKEPMRLLTVKIPVRMDDGSVKIFTGYRAHNDSVGPTKGGIRFHPNVTEKEVKALSIWMSLKCGIIDLPYGGGKGGIVCDPRDMSFRELERLSRGYVRAISQIVGPTKDVPAPDVFTNSQIMAWMMDEYSRIDEFNSPGFITGKPLVLGGSHGRESATAKGVTICIKEAAKKRGIDIKGARVVVQGFGNAGSYLAKFMHDAGAKVVGISDAYGGLYDPEGLDIDYLLDRRDSFGTVTKLFNDTITNQELLELDCDILVPAAIENQITEENAHNIRAKIVVEAANGPTTLEGTKILSDRDILLVPDVLASAGGVTVSYFEWVQNNQGFYWSEEEVEEKLEKMMVKSFNNIYEMANNRRIDMRLAAYMVGVRKMAEASRFRGWI | soluble
6 | FSQHVSANLNLPSPSLNTPLNWLLTSVDEVMFNQQLHGSAVHINCAFPEPLYSDGEKSAYQSYLSSVEAWRKGGQTYTQRFVSPSFRDIPFCADRKGVVVIGSLSAEHAQEAKAFAQQMGWPVLADPQSGVSSDWSHYDLWLQQPKLASQLDECDLVLQFGSRIISKRLNQWINKQVSQSQQGRDVQYWFISPSLSRDNQTHLPQLHWVASPKSWVERVDVKSSSTQGWADGLLTDIAHVRAHISDEFLFSSASTLNEIALAADIEERTQSVDVFLGNSLFVRLVDMFGRLNTEVFTNRGASGIDGLFATASGVQRSRGKPLLMYIGDTSALYDLNSLALFSRNDLPSVLVVTNNDGGAIFDMLPVPQEHRTAYYQMPHGYQFEHAAKQFGLKYEKPTTLQMYQAMVADHLSSGQGTMLVEVQTPPSQAAELIKAFNKSLHASL | not soluble
7 | MAYQSKNTDEHVTFADALLSKRYRKAQNDFLNQVERLIDWRPIRTLINKKYTKRQNAIGAPAYDVILLFKMLLLETWYNLSDCALEERINDSITFSRFLGLKMEEVSPDHSTISRFRSALTELGLMDKLLAQFNKQLSRHHISVREGVLVDASLVETPHKPNGTITIEVADDREDNRSEAEKEAEEDYQKQVVRRRKGTDEEARWVYKQKRYHYGYKKHCLTNVQGIVQKVITTAANRSDTKEFIPLLQGANIPQGTAVLADKGYACGENRSYLQTHHLQDGIMHKAQRNRALTEEEKQGNKAISPIRSTIERTFGSIRRWFHGGRCRYRGLAKTHTQNILESIAFNLYRTPGIIMSSSLG | not soluble
8 | GSNKLHLRVVTLIEHPFVFTREVDDEGLCPAGQLCLDPMTNDSSMLDRLFSSLHSSNDTVPIKFKKCCYGYCIDLLEQLAEDMNFDFDLYIVGDGKYGAWKNGHWTGLVGDLLSGTANMAVTSFSINTARSQVIDFTSPFFSTSLGILVRTRGTELSGIHDPKLHHPSQGFRFGTVRESSAEDYVRQSFPEMHEYMRRYNVPATPDGVQYLKNDPEKLDAFIMDKALLDYEVSIDADCKLLTVGKPFAIEGYGIGLPPNSPLTSNISELISQYKSHGFMDVLHDKWYKVVPCGK | soluble
9 | MRSSKGGRGRQAAPKTAPTTVCYCDGKRELGSVEVVCSTCLKWFHGRCLKEFHELNSNGVPFMICYTFTCKQCRPTAEDWKAKKADLVQMCVTVLATLSAERLKADGKLSAEHVPEDFTYLSLKDEIVPYMNENWYMLTAIKQKKEWHQNLAPTLLKEKNIFVQHNDDDDLFALAEKNLSLLGPLHEAVKLIGKRPIERENREPRHIELPPIEGPKTRGASKRRHAEAPVTGKKQKLAADYSSTAAPNGVQIDIPFSKDNYRYYLTEVDPNVPEDPAWNQNQSSAYVIPSFHYRELLNPTVNVSSNDRAFQLSINGNSITGFEGYSMARASHGVSKGTWYFEVNFDDQPDDSHIRIGWSQSYASLQACVGYNKFSYGWRSKHGTKFHEAKGKKYHFGGFKQGDVLGCLIHLPVDKKLQIPANLPSEKYLPVSHKGFNLISFKANYFFEVQEESADIAKTLVEMPGSYIEFFHNGKSCGKAYENIYAGAYYPSISIFKSATATMNLGPKFRNLPRGATGIHARADEQQHEQTLSDMLYLVSKEVNLDHPPRVKREDDDDVKDIKKEIKQEI | not soluble
10 | MINLTNLASSLARVALSDSTKPTIDRAMNVVSHIAGKVALQVNSSLLEQKGRLNERQQKGLEVILDALLGKEPVTHVETHEGGGRFNLARAAFDVASVVWERDQSMRNVMSFLGINDSKGNLLFSLGKTLADAMARPEPENGKHNSEANYAFFSSNLKLNKLMNDIADQVINEIRQQNTDRVRRPTPGPSWRPESTQQQARPQTPPSARPQANSAPPPPKAQPDAGAQRPSTERPPKTTPTGASAKVDDSAPAKPPVKQLYEHLGLSDMTADLSAVKKAYKKAALKYHPDKNAGNVAEANERFKKISNAFRILSDPELRTKYDNGVIDENG | not soluble
11 | MGSDKIHHHHHHMSTPQFGRKVSLIIGQDSGDALDLSELRFRFDVRRGDLQTPNSARVRVYNVSPDTARRAQREFSRLVLQAGYPGNFGIIFDGTIKQVRRGRENQTDTYLDITAADGDSAYNFAVVNTTLAAGSTPSDHVAAACTAMNPYGVTQGYLPSLPSNPLPRGKVMFGMAREFMRWTARTCQTVWSIQDGKAIMVPETSYMPGEIPVITAETGMVGLPEQTQNGIAIKMLLNPSVKIGRLIQIDNASVQQYEYSLNVGQQAQNERIEQQAKLQDDGFYYVMLAEHYGDTRGNDFYTDVICLAADVTVLPDSFRDKAAVPPDNVIKRFG | not soluble
12 | MGSDKIHHHHHHMSILVPEQVREALDVHVVSFLGGRLNKHWLVDVCGHKLVLRRWAADREDAGYERDLRQAIRASGWPVARDVTALTEIAGELWSLAEFLPGEPHPEKNSAAELSLRGRLMAEFHQVTASLNPGRRKHWRLPDEILSDDHLEQVFEHCPDVRLRRLLFWHLQRGRQLAAGLPWSEQSLQLIHGDFTPWNLLYREGQLSGLLDCEMSRPEYRISEFALSWRGRYDALIHAYHAVSPLSAPEWNMLTPAWWALLLEGAYRNLVSGTEDQGWTAGMLLRRSPLMGIESCPC | not soluble
13 | MGSDKIHHHHHHMIRVLSVFGTRPEAIKMAPLVKKLEEEQNVESLVCVTAQHRQMLDQVLEVFDIKPDFDLNIMKERQNLSDITVNALSGLYDLIGELKPDIVLVQGDTTTTFAGALAAFYHRIPVGHVEAGLRTNDRYSPFPEEINRRLTGVLSTLHFAPTKRNRENLLKENVMGKIYVTGNTVIDALRYTVKENHVFEDPILRNMDFSDGRYILLTSHRRENIGKPLENICRAVRRIVEGFEDVKVIYPVHMNPAVREIVFPMLENVERVFLIDPVNVIDMHNLMARSYLIMTDSGGIQEEAPALGKPVIVLRKETERPEAIEAGVAVLGGVEEERIFELAKKLLVDREEYEKMAKAVNPFGDGRASERIVKAILHEFGLSDPPEEFC | not soluble
14 | MGSSHHHHHHSSGRENLYFQGMTLKAGIVGIGMIGSDHLRRLANTVSGVEVVAVCDIVAGRAQAALDKYAIEAKDYNDYHDLINDKDVEVVIITASNEAHADVAVAALNANKYVFCEKPLAVTAADCQRVIEAEQKNGKRMVQIGFMRRYDKGYVQLKNIIDSGEIGQPLMVHGRHYNASTVPEYKTPQAIYETLIHEIDVMHWLLNEDYKTVKVYFPRQSSLVTTLRDPQLVVMETTSGINIVVEVFVNCQYGYDIHCDVTGEKGMAELPTVASAAVRKAAKYSTDILVDWKQRFIDAYDIEFQDFFDRLNAGLPPAGPTSWDGYLAAVTADACVKSQETGNTEIVELPSKPDFYK | soluble
15 | TGMSREEVESLIQEVLEVYPEKARKDRNKHLAVNDPAVTQSKKCIISNKKSQPGLMTIRGCAYAGSKGIVWGPIKDMIHISHGPVGCGQYSRAGRRNYYIGTTGVNAFVTMNFTSDFQEKDIVFGGDKKLAKLIDEVETLFPLNKGISVQSECPIGLIGDDIESVSKVKGAELSKTIVPVRCEGFRGVSQSLGHHIANDAVRDWVLGKRDEDTTFASTPYDVAIIGDYNIGGDAWSSRILLEEMGLRCVAQWSGDGSISEIELTPKVKLNLVHCYRSMNYISRHMEEKYGIPWMEYNFFGPTKTIESLRAIAAKFDESIQKKCEEVIAKYKPEWEAVVAKYRPRLEGKRVMLYIGGLRPRHVIGAYEDLGMEVVGTGYEFAHNDDYDRTMKEMGDSTLLYDDVTGYEFEEFVKRIKPDLIGSGIKEKFIFQKMGIPFREMHSWDYSGPYHGFDGFAIFARDMDMTLNNPCWKKLQAPWEASEGAEKVAASA | soluble
16 | MHRVEETRRIAPEEGNPVLISQIKDASGNITVAVREEGGQARAVKGAASVYALAMEAANGGKSLADVVSAHGLGDAVDLDKAYAEGRFLPPITHPDPAHLHLTGTGLTHLGSAATRDSMHKKTTEAAEESLTDSMKMFRMGLENGKPKAGEKGVQPEWFYKGNGHVAAAPGAALTSPSFALDGGEEPEMAGIYVISDKGEAVRIGFAVSNEFSDHVTERVNYLYLAHSKLRPASFGPEIRVGAAPSDIRGTSRIRRGDKVIFEKPFVSGEDNMSHTFANLEYHHFKYGLFRAPGDVHVHMFGTATLSFAEGIKPEAGDVFEIEAAGFGLPLKNPLAVDSEEEIVVRQI | not soluble
